pIC50: −log10 of the molar value.
How the values were obtained:
human LGR7 (human) = human LGR7 (human) (UniProt Q9HBX9); experiment: cell-based or functional assay
human LGR8 (human) = human LGR8 (human) (UniProt Q8WXD0); experiment: cell-based or functional assay
rat LGR7 (rat) = rat LGR7 (rat) (UniProt Q6R6I6); experiment: competition with 100 pM [125I] human relaxin-2, COS-7 membranes with rat LGR7
rat GPCR135 (rat) = rat GPCR135 (rat) (UniProt Q5Y987); experiment: competition with 100 pM [125I] human R3, COS-7 membranes with rat GPCR135
Chain of rat GPCR135 (rat) (Q5Y987 entry or part of it): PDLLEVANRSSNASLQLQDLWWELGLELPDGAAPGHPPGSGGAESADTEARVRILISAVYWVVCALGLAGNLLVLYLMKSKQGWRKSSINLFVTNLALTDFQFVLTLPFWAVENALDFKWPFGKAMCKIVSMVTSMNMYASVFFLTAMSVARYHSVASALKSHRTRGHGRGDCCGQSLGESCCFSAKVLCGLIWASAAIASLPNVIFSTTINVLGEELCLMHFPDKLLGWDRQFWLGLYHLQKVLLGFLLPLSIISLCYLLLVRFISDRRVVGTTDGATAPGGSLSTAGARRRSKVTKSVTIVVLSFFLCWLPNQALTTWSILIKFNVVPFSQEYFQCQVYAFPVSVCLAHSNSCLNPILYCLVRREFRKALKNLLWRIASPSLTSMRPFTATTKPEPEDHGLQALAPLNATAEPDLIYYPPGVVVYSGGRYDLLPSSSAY

Chain of rat LGR7 (rat) (Q6R6I6 whole entry): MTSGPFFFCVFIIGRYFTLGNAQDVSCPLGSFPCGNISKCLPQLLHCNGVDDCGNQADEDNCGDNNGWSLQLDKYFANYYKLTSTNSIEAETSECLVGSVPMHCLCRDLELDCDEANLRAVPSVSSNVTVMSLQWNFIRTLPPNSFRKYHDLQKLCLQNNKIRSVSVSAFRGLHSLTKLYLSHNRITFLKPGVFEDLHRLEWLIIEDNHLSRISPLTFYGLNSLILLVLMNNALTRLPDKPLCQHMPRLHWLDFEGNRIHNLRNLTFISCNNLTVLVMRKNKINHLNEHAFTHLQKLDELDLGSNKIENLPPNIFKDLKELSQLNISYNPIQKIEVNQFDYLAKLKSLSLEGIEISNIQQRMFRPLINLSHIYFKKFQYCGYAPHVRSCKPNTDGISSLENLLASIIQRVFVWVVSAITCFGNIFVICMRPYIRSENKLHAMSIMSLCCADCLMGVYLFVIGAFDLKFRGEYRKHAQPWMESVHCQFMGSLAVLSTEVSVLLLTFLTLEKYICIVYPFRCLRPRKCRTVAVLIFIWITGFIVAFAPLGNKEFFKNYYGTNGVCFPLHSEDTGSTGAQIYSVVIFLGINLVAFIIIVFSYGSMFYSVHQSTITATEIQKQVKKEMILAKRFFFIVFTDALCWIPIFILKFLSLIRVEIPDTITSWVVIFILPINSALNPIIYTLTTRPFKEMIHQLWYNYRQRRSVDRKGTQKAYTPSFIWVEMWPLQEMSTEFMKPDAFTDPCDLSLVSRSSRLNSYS
Chain of human LGR8 (human) (Q8WXD0 whole entry): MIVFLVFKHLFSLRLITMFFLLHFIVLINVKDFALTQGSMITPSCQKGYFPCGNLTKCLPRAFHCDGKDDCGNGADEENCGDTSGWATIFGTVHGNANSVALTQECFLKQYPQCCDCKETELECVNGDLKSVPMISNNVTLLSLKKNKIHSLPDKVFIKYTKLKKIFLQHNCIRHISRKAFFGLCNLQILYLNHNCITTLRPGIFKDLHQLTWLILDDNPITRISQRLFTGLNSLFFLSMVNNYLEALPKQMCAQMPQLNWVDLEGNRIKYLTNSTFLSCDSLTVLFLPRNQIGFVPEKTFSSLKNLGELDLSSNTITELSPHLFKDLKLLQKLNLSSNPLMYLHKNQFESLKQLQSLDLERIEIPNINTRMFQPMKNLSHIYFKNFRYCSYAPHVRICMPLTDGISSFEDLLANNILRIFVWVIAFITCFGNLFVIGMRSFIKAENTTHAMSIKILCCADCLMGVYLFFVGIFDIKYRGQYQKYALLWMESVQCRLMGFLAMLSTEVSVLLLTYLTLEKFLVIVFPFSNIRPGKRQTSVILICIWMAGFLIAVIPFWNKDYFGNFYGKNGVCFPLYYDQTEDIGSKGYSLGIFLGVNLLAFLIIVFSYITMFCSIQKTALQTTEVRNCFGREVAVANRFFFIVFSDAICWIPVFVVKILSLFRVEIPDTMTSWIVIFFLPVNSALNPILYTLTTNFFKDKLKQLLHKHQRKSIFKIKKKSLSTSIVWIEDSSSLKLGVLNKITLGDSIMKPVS
Chain of human LGR7 (human) (Q9HBX9 whole entry): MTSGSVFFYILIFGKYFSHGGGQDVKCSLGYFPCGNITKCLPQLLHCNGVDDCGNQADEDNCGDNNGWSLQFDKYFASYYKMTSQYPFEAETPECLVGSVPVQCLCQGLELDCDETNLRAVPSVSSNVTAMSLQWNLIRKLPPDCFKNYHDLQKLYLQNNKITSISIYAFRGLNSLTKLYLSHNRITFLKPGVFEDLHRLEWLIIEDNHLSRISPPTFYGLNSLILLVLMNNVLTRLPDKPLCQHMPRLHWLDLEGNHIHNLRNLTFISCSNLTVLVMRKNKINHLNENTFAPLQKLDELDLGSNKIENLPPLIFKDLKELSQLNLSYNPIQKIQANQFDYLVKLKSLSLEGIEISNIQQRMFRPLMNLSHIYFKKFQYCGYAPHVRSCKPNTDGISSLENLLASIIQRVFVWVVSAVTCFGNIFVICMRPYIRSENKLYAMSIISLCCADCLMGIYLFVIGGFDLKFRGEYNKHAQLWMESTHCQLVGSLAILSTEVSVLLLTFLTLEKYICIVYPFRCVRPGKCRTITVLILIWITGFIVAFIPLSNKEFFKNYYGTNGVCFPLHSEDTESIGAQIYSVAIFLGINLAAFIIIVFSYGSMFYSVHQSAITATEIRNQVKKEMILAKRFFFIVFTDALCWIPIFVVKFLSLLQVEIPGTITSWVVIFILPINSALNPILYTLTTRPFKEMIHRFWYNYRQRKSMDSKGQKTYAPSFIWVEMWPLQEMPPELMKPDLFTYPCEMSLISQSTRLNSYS

Row | stimulation of β-galactosidase activity in SK-N-MC/β-gal cells, EC50 (human LGR7 (human)) [nM] | induction of β-galactosidase activity in SK-N-MC/β-gal cells, EC50 (human LGR8 (human)) [nM] | pIC50 (rat LGR7 (rat)) | pIC50 (rat GPCR135 (rat)) | Substance
1 | 0.25 | 1.5 | – | – | porcine relaxin (from UniProt P01348 25-56; P01348 161-182) (ligand)
2 | – | – | 9.70 | < 6.00 | human relaxin (R1) (from UniProt P04808 26-53; P04808 162-185) (ligand)
